{"source": "patent US20130102644", "about": "“Prophylactic or Ameliorating Agent for Genetic Diseases” (published 2013)", "biological_target": "hnRNP A1 (Homo sapiens, UniProt P09651 P09651:1-372)", "sequence (P09651 whole entry, the tested form may be a part, one chain of several)": "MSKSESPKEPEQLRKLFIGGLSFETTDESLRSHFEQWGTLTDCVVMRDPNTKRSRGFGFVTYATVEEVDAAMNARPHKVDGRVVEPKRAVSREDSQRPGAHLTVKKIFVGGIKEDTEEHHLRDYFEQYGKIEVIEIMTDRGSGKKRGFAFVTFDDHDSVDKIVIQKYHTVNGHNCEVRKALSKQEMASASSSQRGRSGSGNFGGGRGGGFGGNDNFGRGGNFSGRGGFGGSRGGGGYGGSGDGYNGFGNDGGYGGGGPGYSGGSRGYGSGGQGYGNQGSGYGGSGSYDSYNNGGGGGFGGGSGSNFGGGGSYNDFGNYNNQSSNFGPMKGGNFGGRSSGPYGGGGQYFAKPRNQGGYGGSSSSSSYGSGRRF", "experiment": "EMSA; 100-400 ng protein; same as mutant at low protein, less efficient at 400 ng; 80 mM KCl, pH 7.9, E. coli tRNA, 20 C", "details": "tags: N-terminal GST (GST-pcDNA3), expressed in HEK293T; label: 32P", "protocol": "Human hnRNP A1 cDNA was amplified by PCR. The obtained amplified fragment was inserted to between the BamHI and NotI sites of GST-pcDNA3 to prepare a GST-hnRNP A1 plasmid. The whole sequence of this plasmid was determined to confirm the plasmid to comprise the fragment of interest. HEK293T cells were transfected with this GST-hnRNP A1 plasmid, and the obtained transformed cells were cultured. A whole cell lysate was prepared from the collected transformed cells according to the method described in the document (Methods Mol Biol (2008) 488, 357-365). The GST-hnRNP A1 protein was purified from the whole cell lysate using an anti-GST affinity resin (manufactured by Sigma-Aldrich Corp.), basically as described in the document (The Journal of Biological Chemistry (2002) 277, 7540-7545) except that the resin was washed twice with buffer solution E (20 mM Hepes-KOH (pH 7.9), 1000 mM KCl, 0.2 mM EDTA, 10% glycerol, and 1 mM DTT) before elution from the column. Subsequently, mutant exon 31 RNA or wild-type exon 31 RNA labeled with ³²P was mixed with the GST-hnRNP A1 protein and incubated at 20° C. for 30 minutes. The obtained complex was subjected to gel mobility shift assay. […]\nThe gel mobility shift assay was basically conducted according to the method described in the document (Nucleic Acids Research (1995) 23, 3638-3641). […] Bands were analyzed by autoradiography. […]", "data": [{"binder": "dystrophin exon 31 RNA wild-type (ssRNA) RNA: AAAAUCCAAUCUGAUUUGACAAGUCAUGAGAUCAGUUUAGAAGAAAUGAAGAAACAUAAUCAGGGGAAGGAGGCUGCCCAAAGAGUCCUGUCUCAGAUUGAUGUUGCACAG", "values": [{"measurement": "binding result", "value": "binds"}]}]}
